Tested on: Escherichia coli TOP10
Experiment: shrunken log2 fold change of peptide-encoding DNA abundance (4.5 h post-induction vs induction); higher = less antimicrobial activity (less host growth inhibition)
Details: time post-induction: 4.5 h; library: site-saturation at positions 5, 18, 19, 20
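Further: peptides expressed intracellularly from a pBAD plasmid library in pooled LB shake-flask culture, induced with 0.3% L-arabinose, DNA abundance read by NGS, three biological replicates, DESeq2 with apeglm shrinkage.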

Sequence: RRIRGRPPRLPRPRPRPQKQPRP
- shrunken log2 fold change: 0.154

Sequence: RRIRMRPPRLPRPRPRPAFMPRP
- shrunken log2 fold change: 0.211

Sequence: RRIRLRPPRLPRPRPRPHNHPRP
- shrunken log2 fold change: -0.77

Sequence: RRIRVRPPRLPRPRPRPVVEPRP
- shrunken log2 fold change: -0.112

Sequence: RRIRYRPPRLPRPRPRPITIPRP
- shrunken log2 fold change: -0.149

Sequence: RRIRLRPPRLPRPRPRPKNHPRP
- shrunken log2 fold change: -0.269

Sequence: RRIRFRPPRLPRPRPRPDDQPRP
- shrunken log2 fold change: -0.151

Sequence: RRIRHRPPRLPRPRPRPLKDPRP
- shrunken log2 fold change: -0.361

Sequence: RRIRMRPPRLPRPRPRPKKSPRP
- shrunken log2 fold change: 1.18

Sequence: RRIRERPPRLPRPRPRPLCMPRP
- shrunken log2 fold change: -0.592

Sequence: RRIRQRPPRLPRPRPRPHCPPRP
- shrunken log2 fold change: -0.0268

Sequence: RRIRHRPPRLPRPRPRPERGPRP
- shrunken log2 fold change: 1.02

Sequence: RRIRERPPRLPRPRPRPQEPPRP
- shrunken log2 fold change: -0.0182

Sequence: RRIRERPPRLPRPRPRPFFAPRP
- shrunken log2 fold change: 0.848

Sequence: RRIRNRPPRLPRPRPRPQVDPRP
- shrunken log2 fold change: -0.706

Sequence: RRIRKRPPRLPRPRPRPTWAPRP
- shrunken log2 fold change: 0.0687

Sequence: RRIRARPPRLPRPRPRPPLIPRP
- shrunken log2 fold change: 0.299

Sequence: RRIRCRPPRLPRPRPRPGMNPRP
- shrunken log2 fold change: -0.131

Sequence: RRIRRRPPRLPRPRPRPAWDPRP
- shrunken log2 fold change: 0.324

Sequence: RRIRNRPPRLPRPRPRPDFVPRP
- shrunken log2 fold change: -0.045

Sequence: RRIRARPPRLPRPRPRPDTLPRP
- shrunken log2 fold change: -0.0794

Sequence: RRIRMRPPRLPRPRPRPTYPPRP
- shrunken log2 fold change: -0.0846

Sequence: RRIRLRPPRLPRPRPRPRAAPRP
- shrunken log2 fold change: 0.417

Sequence: RRIRQRPPRLPRPRPRPSAEPRP
- shrunken log2 fold change: 0.117

Sequence: RRIRYRPPRLPRPRPRPRSRPRP
- shrunken log2 fold change: 0.07

Sequence: RRIRQRPPRLPRPRPRPGRAPRP
- shrunken log2 fold change: 0.474

Sequence: RRIRARPPRLPRPRPRPEFAPRP
- shrunken log2 fold change: 0.727

Sequence: RRIRGRPPRLPRPRPRPHLHPRP
- shrunken log2 fold change: 0.227

Sequence: RRIRARPPRLPRPRPRPWFEPRP
- shrunken log2 fold change: -0.0275

Sequence: RRIRMRPPRLPRPRPRPKFYPRP
- shrunken log2 fold change: 0.0127

Sequence: RRIRKRPPRLPRPRPRPVDRPRP
- shrunken log2 fold change: 0.248

Sequence: RRIRQRPPRLPRPRPRPWPKPRP
- shrunken log2 fold change: 0.097

Sequence: RRIRPRPPRLPRPRPRPFKAPRP
- shrunken log2 fold change: -0.0573

Sequence: RRIRDRPPRLPRPRPRPAEMPRP
- shrunken log2 fold change: 0.515

Sequence: RRIRTRPPRLPRPRPRPDTRPRP
- shrunken log2 fold change: -0.186

Sequence: RRIRRRPPRLPRPRPRPMILPRP
- shrunken log2 fold change: 0.359

Sequence: RRIRDRPPRLPRPRPRPEAYPRP
- shrunken log2 fold change: -0.0102

Sequence: RRIRSRPPRLPRPRPRPICPPRP
- shrunken log2 fold change: -0.055

Sequence: RRIRKRPPRLPRPRPRPKMIPRP
- shrunken log2 fold change: -0.0764

Sequence: RRIRHRPPRLPRPRPRPKKSPRP
- shrunken log2 fold change: -0.0145

Sequence: RRIRDRPPRLPRPRPRPDSSPRP
- shrunken log2 fold change: 0.109

Sequence: RRIRDRPPRLPRPRPRPTIKPRP
- shrunken log2 fold change: -0.295

Sequence: RRIRIRPPRLPRPRPRPKRFPRP
- shrunken log2 fold change: 0.276

Sequence: RRIRFRPPRLPRPRPRPCDSPRP
- shrunken log2 fold change: -0.0928

Sequence: RRIRVRPPRLPRPRPRPRPIPRP
- shrunken log2 fold change: 0.611

Sequence: RRIRWRPPRLPRPRPRPVEGPRP
- shrunken log2 fold change: -0.0555

Sequence: RRIRMRPPRLPRPRPRPYTPPRP
- shrunken log2 fold change: -0.847

Sequence: RRIRFRPPRLPRPRPRPAFQPRP
- shrunken log2 fold change: 0.243

Sequence: RRIRRRPPRLPRPRPRPKMIPRP
- shrunken log2 fold change: 0.103

Sequence: RRIRQRPPRLPRPRPRPWGCPRP
- shrunken log2 fold change: -0.122

Sequence: RRIRVRPPRLPRPRPRPHNFPRP
- shrunken log2 fold change: -0.418

Sequence: RRIRFRPPRLPRPRPRPPLMPRP
- shrunken log2 fold change: 0.154

Sequence: RRIRKRPPRLPRPRPRPTLCPRP
- shrunken log2 fold change: 0.403

Sequence: RRIRLRPPRLPRPRPRPISCPRP
- shrunken log2 fold change: -0.0691

Sequence: RRIRDRPPRLPRPRPRPVCLPRP
- shrunken log2 fold change: 0.345

Sequence: RRIRFRPPRLPRPRPRPMGLPRP
- shrunken log2 fold change: -0.00847

Sequence: RRIRERPPRLPRPRPRPFLDPRP
- shrunken log2 fold change: -0.318

Sequence: RRIRWRPPRLPRPRPRPVVNPRP
- shrunken log2 fold change: 0.261

Sequence: RRIRDRPPRLPRPRPRPAYVPRP
- shrunken log2 fold change: -0.00133

Sequence: RRIRSRPPRLPRPRPRPRKHPRP
- shrunken log2 fold change: 0.0783

Sequence: RRIRLRPPRLPRPRPRPDFVPRP
- shrunken log2 fold change: -0.108

Sequence: RRIRLRPPRLPRPRPRPQDFPRP
- shrunken log2 fold change: 0.0788

Sequence: RRIRNRPPRLPRPRPRPVQNPRP
- shrunken log2 fold change: -0.0269

Sequence: RRIRKRPPRLPRPRPRPRMKPRP
- shrunken log2 fold change: 0.346

Sequence: RRIRSRPPRLPRPRPRPCQRPRP
- shrunken log2 fold change: -0.0305

Sequence: RRIRWRPPRLPRPRPRPSMVPRP
- shrunken log2 fold change: -0.129

Sequence: RRIRARPPRLPRPRPRPFMNPRP
- shrunken log2 fold change: -0.0629

Sequence: RRIRHRPPRLPRPRPRPCCGPRP
- shrunken log2 fold change: -0.114

Sequence: RRIRMRPPRLPRPRPRPDSKPRP
- shrunken log2 fold change: 0.732

Sequence: RRIRNRPPRLPRPRPRPVHIPRP
- shrunken log2 fold change: -0.15

Sequence: RRIRLRPPRLPRPRPRPYSYPRP
- shrunken log2 fold change: -0.977

Sequence: RRIRHRPPRLPRPRPRPQYIPRP
- shrunken log2 fold change: -0.621

Sequence: RRIRPRPPRLPRPRPRPVENPRP
- shrunken log2 fold change: 0.243

Sequence: RRIRCRPPRLPRPRPRPHRSPRP
- shrunken log2 fold change: -0.114

Sequence: RRIRGRPPRLPRPRPRPANYPRP
- shrunken log2 fold change: 0.0041

Sequence: RRIRSRPPRLPRPRPRPLVLPRP
- shrunken log2 fold change: -0.233

Sequence: RRIRWRPPRLPRPRPRPNTQPRP
- shrunken log2 fold change: 0.448

Sequence: RRIRKRPPRLPRPRPRPGPGPRP
- shrunken log2 fold change: 0.493

Sequence: RRIRWRPPRLPRPRPRPAAWPRP
- shrunken log2 fold change: 0.121

Sequence: RRIRARPPRLPRPRPRPWVSPRP
- shrunken log2 fold change: -0.0266

Sequence: RRIRKRPPRLPRPRPRPKCMPRP
- shrunken log2 fold change: 0.15

Sequence: RRIRHRPPRLPRPRPRPKHTPRP
- shrunken log2 fold change: -0.104

Sequence: RRIRTRPPRLPRPRPRPNDWPRP
- shrunken log2 fold change: -0.385

Sequence: RRIRTRPPRLPRPRPRPFGHPRP
- shrunken log2 fold change: -0.145

Sequence: RRIRHRPPRLPRPRPRPGRHPRP
- shrunken log2 fold change: -0.0683

Sequence: RRIRFRPPRLPRPRPRPAASPRP
- shrunken log2 fold change: 0.0986

Sequence: RRIRARPPRLPRPRPRPRMNPRP
- shrunken log2 fold change: 0.183

Sequence: RRIRQRPPRLPRPRPRPHRQPRP
- shrunken log2 fold change: 0.00471

Sequence: RRIRLRPPRLPRPRPRPDEMPRP
- shrunken log2 fold change: 0.123

Sequence: RRIRCRPPRLPRPRPRPWFRPRP
- shrunken log2 fold change: -0.269

Sequence: RRIRHRPPRLPRPRPRPIEWPRP
- shrunken log2 fold change: -0.02

Sequence: RRIRSRPPRLPRPRPRPLMQPRP
- shrunken log2 fold change: -0.0707

Sequence: RRIRPRPPRLPRPRPRPMAGPRP
- shrunken log2 fold change: -0.13

Sequence: RRIRGRPPRLPRPRPRPQAAPRP
- shrunken log2 fold change: 1.22

Sequence: RRIRRRPPRLPRPRPRPYPRPRP
- shrunken log2 fold change: 0.207

Sequence: RRIRPRPPRLPRPRPRPTRYPRP
- shrunken log2 fold change: 0.23

Sequence: RRIRTRPPRLPRPRPRPMIIPRP
- shrunken log2 fold change: -0.0854

Sequence: RRIRLRPPRLPRPRPRPHMGPRP
- shrunken log2 fold change: -0.386

Sequence: RRIRARPPRLPRPRPRPKYQPRP
- shrunken log2 fold change: -0.112

Sequence: RRIRLRPPRLPRPRPRPCMEPRP
- shrunken log2 fold change: 0.115

Sequence: RRIRTRPPRLPRPRPRPSYRPRP
- shrunken log2 fold change: -0.271

Sequence: RRIRARPPRLPRPRPRPLFCPRP
- shrunken log2 fold change: 0.00332

Sequence: RRIRDRPPRLPRPRPRPWTKPRP
- shrunken log2 fold change: 0.0467

Sequence: RRIRERPPRLPRPRPRPWCTPRP
- shrunken log2 fold change: -0.391

Sequence: RRIRHRPPRLPRPRPRPADWPRP
- shrunken log2 fold change: 0.0838

Sequence: RRIRIRPPRLPRPRPRPNQGPRP
- shrunken log2 fold change: 0.0325

Sequence: RRIRHRPPRLPRPRPRPDKMPRP
- shrunken log2 fold change: -0.0794

Sequence: RRIRRRPPRLPRPRPRPYMTPRP
- shrunken log2 fold change: -0.0329

Sequence: RRIRFRPPRLPRPRPRPQAWPRP
- shrunken log2 fold change: 0.15

Source: the supplement of paper PMC9112550, “Optimization of the antimicrobial peptide Bac7 by deep mutational scanning” (BMC Biology, 2022)
